Measurements published in PMC10926643 (2024).

Target: T1, recombinant FGF12 fused with the His-tag (UniProt P61328 1-243)
T1 chain: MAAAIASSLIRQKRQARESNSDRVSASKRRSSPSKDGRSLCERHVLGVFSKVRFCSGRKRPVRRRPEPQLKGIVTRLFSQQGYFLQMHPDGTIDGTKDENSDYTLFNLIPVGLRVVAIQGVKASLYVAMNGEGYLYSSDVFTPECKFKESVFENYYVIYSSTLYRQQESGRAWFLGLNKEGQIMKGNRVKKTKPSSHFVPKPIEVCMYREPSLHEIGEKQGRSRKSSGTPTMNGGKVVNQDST
Assay: SPR

B1: recombinant galectin-8 (natural protein)
chain: MMLSLNNLQNIIYNPVIPFVGTIPDQLDPGTLIVIRGHVPSDADRFQVDLQNGSSMKPRADVAFHFNPRFKRAGCIVCNTLINEKWGREEITYDTPFKREKSFEIVIMVLKDKFQVAVNGKHTLLYGHRIGPEKIDTLGIYGKVNIHSIGFSFSSDLQSTQASSLELTEISRENVPKSGTPQLRLPFAARLNTPMGPGRTVVVKGEVNANAKSFNVDLLAGKSKDIALHLNPRLNIKAFVRNSFLQESWGEEERNITSFPFSPGMYFEMIIYCDVREFKVAVNGVHSLEYKHRFKELSSIDTLEINGDIHLLEVRSW
B1 gave a Kd of 581 nM.
